Test results taken from paper PMC11607471, “E3 Ubiquitin Ligase Ring Finger Protein 2 Alleviates Cerebral Ischemia–Reperfusion Injury by Stabilizing Mesencephalic Astrocyte‐Derived Neurotrophic Factor Through Monoubiquitination” (CNS Neuroscience & Therapeutics, 2024).

Target: T1, GST-RNF2 (human, UniProt Q99496 1-336)
T1 construct: RNF2; also called recombinant GST-tagged human RNF2; source: Escherichia coli BL-21, immobilized on glutathione-Sepharose beads
T1 sequence (looked up): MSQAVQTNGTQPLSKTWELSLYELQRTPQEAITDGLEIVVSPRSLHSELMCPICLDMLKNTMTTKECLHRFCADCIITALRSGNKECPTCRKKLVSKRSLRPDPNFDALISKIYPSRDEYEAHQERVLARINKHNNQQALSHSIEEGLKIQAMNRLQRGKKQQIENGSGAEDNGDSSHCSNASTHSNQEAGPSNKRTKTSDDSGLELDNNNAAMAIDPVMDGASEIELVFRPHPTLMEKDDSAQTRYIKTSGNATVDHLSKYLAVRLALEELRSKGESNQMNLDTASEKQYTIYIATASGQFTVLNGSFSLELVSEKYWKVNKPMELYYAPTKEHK
Assay: pull-down; GST-RNF2 immobilized on glutathione-Sepharose beads incubated with recombinant His-MANF; blot with anti-MANF
Settings: both partners purified

binding result: binds
B1: His-tagged human MANF (natural protein, UniProt P55145 25-182, looked up)
chain: LRPGDCEVCISYLGRFYQDLKDRDVTFSPATIENELIKFCREARGKENRLCYYIGATDDAATKIINEVSKPLAHHIPVEKICEKLKKKDSQICELKYDKQIDLSTVDLKKLRVKELKKILDDWGETCKGCAEKSDYIRKINELMPKYAPKAASARTDL
notes: human MANF; also called His-MANF; recombinant His-MANF; source: Escherichia coli BL-21, purified (Ni-NTA agarose)
